Source: the RNAGym collection of RNA variant scans (doi:10.7554/elife.90254)

B1: LINE1-full (parent)
chain: UACGUAGGUGGUUUUCCCCUGAUAGUGCUAAGGGGGCCUGGAAGUUUGGACUGGGCAGAGCUCAACACAGCGUGGCAAAGUGGCUGUGGCUAGACUGCCUCUCUGGAUUCCUCGUCACUCAGCAGGGCAUCUCUGAGAGAAAUGCC

Variants of: B1
Test: self-cleavage, relative activity (ratio to wild type); higher = more cleavage; in vitro, sequencing; the parent is a self-cleaving ribozyme

Variant | self-cleavage
A59C U102A | 1.1
A129G G144U | 1.67
G89C A140U | 0.05
C95A A138G | 0.09
A67U U73C | 0.18
U45A U119A | 1.44
A6C A57G | 0.92
C63A U87A | 0.04
A59G C76U | 0.12
G32A A94C | 0.04
A138G | 1.21
U9A A138G | 0.87
U13C G25U | 1.52
U20A G49A | 1.37
U47C A65C | 0
A77U U130C | 1.56
A59G A136U | 0.09
U26A C110A | 0.95
A31U A57G | 1
U9G A141G | 1.51
G34U U104C | 1.34
A79G G106U | 1.48
A42G U134A | 0.93
A42G U134G | 1.68

Variant | self-cleavage
U46A A64C | 0.24
G34C A138G | 2.05
U29A U143A | 0.84
A22U U115A | 0.63
C61U U134G | 0
U104A U143C | 1.13
U87A U134C | 0.1
U47A A57G | 0.54
U1C U23C | 0.98
C71A A140G | 0.23
U26A U102A | 1.01
G49U C76U | 2.46
C51U A69U | 0.04
C18A U109A | 1.71
C61U U115C | 0.02
G55U A117G | 0.3
U26A A141G | 1.11
U45G U73A | 1.49
U73A U112C | 1.56
A6G A94U | 0.3
U47C U85G | 0.32
A64G A142G | 0.25
U23C G58A | 0.1
U23A U108G | 1.59

Variant | self-cleavage
G32C A117G | 1.53
A94G A117C | 0.26
A79G U112C | 1.74
U20A U112A | 1.82
U96C A136C | 0
U115A U143A | 1.36
U20G U104A | 1.29
C71U U81A | 0.88
G8A C37U | 1.31
C28U U143G | 1.02
G11A A79G | 0.56
U102G U143A | 0.84
U14G | 0.82
A69C C71A | 0.16
U73A A79C | 2.16
U81G A129G | 1.48
G32U U100C | 2.02
A64G A121C | 0.24
U20G A78G | 1.1
U23G U46A | 1.3
A6C A141G | 1.71
C66U A142G | 0.05
U62A A79G | 0.04
U62A U100A | 0.05

Variant | self-cleavage
U91A U143G | 0.56
U13C G72A | 1.22
U5C A65U | 0.26
G10A A22U | 1.55
G4A U62C | 0
C38U U73C | 1.76
U119C C146U | 1.68
G11A G60A | 0.01
A69G C146U | 0.51
A6G A59G | 0.1
U13C U134G | 1.04
U5C A57G | 0.93
A6G G55U | 0.41
U13C G21U | 1
U112A | 1.43
U45C A107U | 1.34
U12G U96A | 0.21
G93A A107G | 0.06
G32U U73A | 0.89
U15C A129G | 1.54
G114A U119C | 1.2
G7U G54A | 0.94
U9G A50G | 0.93
U47G U81C | 0

Variant | self-cleavage
U1A A31U | 1.11
U109A A117U | 1.51
U81C U108C | 1.95
U52C U96A | 0.1
U39A U85C | 0.19
G32A A79G | 1.26
G25A A30U | 0.7
A69G A121U | 0.62
C51A U100C | 1.93
G88U U115A | 0.07
U130A | 1.42
U26C C101A | 0.85
U87C G105A | 0.14
A6U U52C | 1.02
A67G A141G | 0.38
G33C A142C | 1.28
U45C G72A | 1.25
A107G U132A | 0.88
C3U U112A | 1.38
C116A A124G | 1.25
G86U A138G | 0.09
G36A A124C | 2.16
G74U U102A | 1.79
C71U U102C | 0.18

Variant | self-cleavage
A2C | 1.24
U46C G48U | 1.61
A30U U91C | 0.56
C51U A64U | 0.46
U119A G126A | 1.3
A59G C95A | 0.01
G72A A141G | 1.54
A2G U115C | 1.43
U73C C113A | 1.4
U81A U132A | 1.7
U52G G144A | 1.34
U29C U132C | 1.46
A67G U104C | 0.96
C38U A79G | 1.29
A57U G144A | 0.16
A22C A30G | 1.18
C19A U100C | 0.9
C113U A129U | 1.86
U45A U115C | 1.51
U5C C128U | 1.53
A31G G139A | 1.19
C28A A79U | 1.47
A30U G58A | 0.18
C37U G54U | 0.41

Variant | self-cleavage
U134C A140G | 1.58
A31U U109A | 1.69
U81C U102C | 0.72
A78G G105A | 1.8
C37U A59G | 0.07
A43C A138G | 1.02
U5C U109A | 0.74
U96A G127A | 0.06
A69G C128A | 0.14
A57G A138G | 1.12
U45C A121U | 1.13
U5C A50U | 0.64
U62A U112A | 0.05
U112G A136C | 0.61
U26A C99U | 0.37
A69G | 0.5
U1C A136G | 1.08
U20A A42G | 1.06
A65U A140G | 0.26
C133U A138U | 2.36
A65U U112A | 0.14
A57U C90U | 0.02
U20G U73G | 0.49
G27A U134A | 0.87

Variant | self-cleavage
A2G A92G | 0
A6U G137A | 1.53
A57U G58U | 0.04
C19U C123U | 1.58
U134A A136U | 1.27
C3A U9C | 1.11
U15C U100C | 1.81
U15A G33A | 0.98
C19A U46C | 1.22
A30G C99A | 0.61
A31U C146A | 0.88
C118A | 1.11
U23C A64C | 0.29
A2G A69U | 0.15
G54A A129G | 0.76
A42G U47A | 1.19
A121G C145A | 1.6
U46C A107U | 1.53
A78C U100C | 2.41
A43G C84U | 0.16
U45C U108A | 1.15
U119C A136G | 1.98
C37G A124G | 1.61
U12A U13C | 1.58

Variant | self-cleavage
U62A U96C | 0.06
U23A U130A | 1.52
A57G A94U | 0.19
A69U G93A | 0.03
A42G G127A | 1.04
U100A C116U | 0.4
U12C U47A | 0.71
C56G U91C | 0.05
U12G A65U | 0.23
A107G G137U | 2.3
A64U A124U | 0.38
U52A U115A | 1.34
U23G U112C | 1.07
G80U A141U | 1.68
A64U U132A | 0.07
A79U G89U | 0.03
A6G A24G | 1.21
C110U U112A | 1.4
U47C U119A | 1.86
U46A A129U | 0.78
U45C G126U | 1.34
C19U U52G | 0.5
C37U U104C | 1.28
A30G G105C | 0.25

Variant | self-cleavage
G72A U100A | 0.18
U52A U73C | 2.24
G27A A136G | 0.93
U46A A57U | 0.08
A67G U143G | 0.37
U115A | 1.36
U52C G89A | 0.05
C17G U52C | 1.22
A30G A129C | 0
C95U A107G | 0.21
C110U U119C | 1.39
U47A U130C | 1.51
U15A U115C | 1.09
A43U A140C | 1.58
A43U A140G | 1.02
G10U U91C | 0.44
A42G G48A | 0.85
A43G U52A | 1.43
A42G A140G | 1.46
U91G A94G | 0
G86A A124U | 0.05
U15C A77U | 1.39
U15C A77C | 0.77
C3U U87A | 0.18

Variant | self-cleavage
A57G G58A | 0.03
G40A U52C | 1.23
U62C G106A | 0.08
A78U A138G | 2.06
U47G G60A | 0.02
U104G A140G | 0.73
G8C A50G | 1.14
U85C A117G | 0.15
U91A | 0.58
A92U A107G | 0.94
A24U G35A | 0.8
G8U U62A | 0.12
U73C C131A | 1.55
C18A A129G | 1.42
A67G C113A | 0.45
U104C U119C | 1.96
A6G G86A | 0.31
U26G U87A | 0
A77G U143A | 1.85
G88A U108C | 0.05
A30G A138G | 0.64
A30G U130A | 1.15
U62A | 0.04
G4A U26C | 0.61

Variant | self-cleavage
A31U U96C | 0.23
G106U A117G | 1.22
C17U U26C | 0.6
U15A G114U | 0.97
A24U A107U | 1.64
G4C U87C | 0.74
A94G G125C | 0.57
A64U U108C | 0.65
A77U U85A | 0.07
U87G A94G | 0
U39A U47C | 1.55
U14C A77C | 2.68
A59U G89A | 0.04
U13C U130C | 1.2
A2U U73C | 0.56
C68U U108C | 0.32
U15C U119C | 1.75
G10C | 0.79
G25A U26A | 1.07
U13G A129G | 1.46
U119C A124G | 1.62
A24G U26C | 0.97
U85C G105A | 0.12
C3U G8C | 0.53

Variant | self-cleavage
C19U U62C | 0.06
U47A A65G | 0.07
A78G U112A | 0.7
U13C G80A | 1.48
G74A A121U | 1.07
G49A U73C | 2.51
U12A U15A | 0.95
U15A U130C | 0.67
A64U A141C | 0.46
A50G G105C | 1.11
A64U A77C | 0.39
A65G U85C | 0.13
G60A U109C | 0.02
A67G G93U | 0.11
U13A U23C | 1.62
A77U U100A | 0.91
U87A C146U | 0.09
C128A U134A | 0.3
G135A A138U | 1.01
A117U G122U | 1.72
U20C U45C | 1.19
A31U U81A | 1.57
A94U U134A | 0.25
C110A U112C | 1.56

Variant | self-cleavage
U73A U104C | 1.53
A43G A57G | 0.78
C103U U134C | 1.48
U45C G97A | 0.07
A57U U85C | 0.06
U47C A117C | 1.96
U100A U104A | 1.51
G55U U132C | 0.16
U73C C110U | 2.11
A117U U132C | 1.37
A69G U96A | 0.04
A69G U96C | 0.16
A67C G82A | 0.05
G54U G105A | 0.87
U52A G80C | 0.98
U46G U112A | 1.47
G97A U143C | 0.16
U1A A141G | 1.43
U26A A30G | 0.84
A67U U115C | 0.34
U23A G54A | 0.96
A107U U130C | 2.08
